This data set can be described thus: protein stability index of a GFP-peptide fusion (GPS, HEK-293T) (PSI 1-6); higher = more stable. The following applies: c terminus: a fixed tail appended.

Drawing on the supplement of paper PMC10567573, this text covers protein stability index for 53 sequences.

± gives the standard deviation.
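Note: 24-mer peptide tiles fused after GFP, lentivirally expressed, FACS-sorted into six equal bins by GFP/DsRed ratio, decoded by Illumina sequencing, PSI is the read-weighted mean bin number.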

As to IDIVAIIPYFITLGTELAERQGNG [KCNA3], the protein stability index reads like this: (treatment: DMSO) 2.97 ± 0.38; (treatment: MLN4924 1 uM, 8 h) 3.29 ± 0.59.
Turning to IEKWVILEKDFSIYGGELGPMMKL [ACSBG2], the protein stability index is, setting by setting: (treatment: DMSO) 2.56 ± 0.71; (treatment: MLN4924 1 uM, 8 h) 2.38 ± 0.44.
On the same counts, the results for IEMFKSITHSTVGSKGEKDLGASS [EHMT1] are 4.23 ± 0.15 and 3.85 ± 0.36.
With IGWFPSNYVLEEVDEAAAESPSFL [NCK2], the protein stability index by setting is: (treatment: DMSO) 3.93 ± 0.24; (treatment: MLN4924 1 uM, 8 h) 4.13 ± 0.23.
For IGWKTVRMYPFQIHSIALSTFASL [CDS2], in that order: 2.69 ± 0.65 and 2.65 ± 0.45.
For IIALIALSVGQYNCPGQYTFSMPS [CD69], in that order: 3.51 ± 0.45 and 3.3 ± 0.48.
IIESFTELARIVLLRHRMNWLGRP [RAB40A] came in with a protein stability index (treatment: DMSO) of 3.18 ± 0.72 and a protein stability index (treatment: MLN4924 1 uM, 8 h) of 2.79 ± 0.47.
On to IIKICDFGFAQILIPGDAYTDYVA [CDKL4], for which the protein stability index turned out to be 2.6 ± 0.59 (treatment: DMSO) and 2.81 ± 0.95 (treatment: MLN4924 1 uM, 8 h).
For IIKKVAEVALDKGCSQFRLAVLDW [SAT2], in that order: 2.77 ± 0.4 and 2.82 ± 0.6.
On the same counts, the results for IKNLYAFNLFCQKRFDESMQVFAK [VPS39] are 2.19 ± 0.29 and 1.96 ± 0.21.
For ILAETGIRKTVKRLRKHQHVGDFA [ELOA2], in that order: 2.78 ± 0.23 and 3.16 ± 0.49.
For the sequence ILELYNIDSHLLLSVLPQLEFKLK [PDS5B], the protein stability index (treatment: DMSO) is 2.64 ± 0.53 and the protein stability index (treatment: MLN4924 1 uM, 8 h) is 2.45 ± 0.78.
For ILGGSGPVRKLYDDCSSTIVEDPQ [ESRRG], in that order: 4.37 ± 0.3 and 4.41 ± 0.3.
For ILLQEIPIRSISLRSCYFSDPDCS [FBXO39], in that order: 2.55 ± 0.54 and 2.91 ± 0.72.
For ILTIMATLKIRNSNFYTVAVTSLS [TMEM106C], the protein stability index by setting is: (treatment: DMSO) 3.3 ± 0.36; (treatment: MLN4924 1 uM, 8 h) 3.16 ± 0.38.
For ILVNLQGTVVFLLSLFIPESPRWL [SLC22A15], in that order: 3.12 ± 0.14 and 3.23 ± 0.48.
IMELTGGGQESSGLNLGKKISVPR [MYOZ1] registered a protein stability index (treatment: DMSO) of 3.58 ± 0.19 and a protein stability index (treatment: MLN4924 1 uM, 8 h) of 3.83 ± 0.33.
On the same counts, the results for IMLKNISQDERLDVLLTLKHTVKE [IQUB] are 2.45 ± 0.56 and 2.09 ± 0.34.
On the same counts, the results for IPAEENASTSTPSSTLVRPIRSRR [FAM189A2] are 5.29 ± 0.16 and 5.33 ± 0.19.
On the same counts, the results for IRALLNLHTDVGSVRMRRAEKSVA [NEK8] are 2.42 ± 0.21 and 2.53 ± 0.19.
Take IREKSRLFDTKHDVYSFAIVIWGV [RIPK4]: the protein stability index is, setting by setting: (treatment: DMSO) 3.27 ± 0.68; (treatment: MLN4924 1 uM, 8 h) 2.9 ± 0.83.
For IRGRYLVALGHAYHPEEFVCSQCG [PDLIM7], in that order: 2.51 ± 0.18 and 2.77 ± 0.3.
In turn, IRSSFISSLSFFLKKMGKRLDYLN [FBXO39] yielded a protein stability index (treatment: DMSO) of 2.71 ± 0.61 and a protein stability index (treatment: MLN4924 1 uM, 8 h) of 2.81 ± 0.56.
Take ISSTTCGRQLEKVPEKRDSGMTEV [SPATS1]: the protein stability index worked out at 4.27 ± 0.24 (treatment: DMSO) and 4.38 ± 0.35 (treatment: MLN4924 1 uM, 8 h).
For ITKQGDGVDFLSWFLNALHSALGG [USP39], in that order: 2.22 ± 0.47 and 2.11 ± 0.21.
On the same counts, the results for ITMMALKVLGELNILPNTQKVTCF [TENT5D] are 2.86 ± 0.59 and 2.31 ± 0.75.
On the same counts, the results for ITNQVVAQVDGAAMFAADPKKPIG [RAD51] are 4.58 ± 0.11 and 4.51 ± 0.2.
As for IYSTKLYRFFKYIENRDVAKSVLK [BTBD10], the protein stability index turned out to be 3.1 ± 0.97 (treatment: DMSO) and 2.37 ± 0.61 (treatment: MLN4924 1 uM, 8 h).
For KALSRKSTSFRVYIMAFDIKSEDM [FBXO33], in that order: 2.74 ± 0.54 and 2.6 ± 0.55.
As for KASSRKPFGILSPNVLCSMSGKSP [FBXO34], the protein stability index (treatment: DMSO) was 2.83 ± 0.095 and the protein stability index (treatment: MLN4924 1 uM, 8 h) came to 3 ± 0.27.
For KCMRNGPNALIASLALGDLIYVVI [EDNRA], in that order: 3.49 ± 0.4 and 2.79 ± 0.79.
Consider KEAKEFLVQLRNMVQQIQENSVEF [TRIM9], for which the protein stability index turned out to be 2.29 ± 0.31 (treatment: DMSO) and 2.41 ± 0.23 (treatment: MLN4924 1 uM, 8 h).
For KECPFRVNKVCGAACSSKRSPIID [SERPINB5], in that order: 3.02 ± 0.2 and 3.12 ± 0.38.
KEEDHYQRARKEREKEDYLHLKRQ [RHOBTB2]: the protein stability index is 4.85 ± 0.15 (treatment: DMSO) and 5.01 ± 0.19 (treatment: MLN4924 1 uM, 8 h).
For KEKLQKCLEPLEQKLQEITRCKSS [TRIM39], in that order: 4.38 ± 0.22 and 4.44 ± 0.4.
Regarding KEKSSTVPIPTVNQYLYFLFAPTL [SOAT1], the protein stability index (treatment: DMSO) was 2.57 ± 1 and the protein stability index (treatment: MLN4924 1 uM, 8 h) amounted to 2.17 ± 0.51.
KGDVEEVQGPGVVGEFPIISPGRV [FBXO3] had a protein stability index (treatment: DMSO) of 4.81 ± 0.27 and a protein stability index (treatment: MLN4924 1 uM, 8 h) of 4.8 ± 0.2.
On the same counts, the results for KGLEDTKSPQFNRYFYLLENIAWV [PDS5B] are 2.44 ± 0.89 and 2.31 ± 0.37.
As for KGLKKVVHETPAASKTVFFFFSSP [BTBD1], the protein stability index by setting is: (treatment: DMSO) 2.29 ± 0.54; (treatment: MLN4924 1 uM, 8 h) 2.29 ± 0.26.
On the same counts, the results for KGMVLDENYNNLANAVISVSGINH [CPN1] are 3.06 ± 0.086 and 3.02 ± 0.29.
For the sequence KGYTPLHAAASNGQINVVKHLLNL [ANKRD44], the protein stability index by setting is: (treatment: DMSO) 2.67 ± 0.21; (treatment: MLN4924 1 uM, 8 h) 2.69 ± 0.25.
For KHERTHEIIPINVNNNYEHRHTSH [SPRY1], in that order: 3.68 ± 0.37 and 3.91 ± 0.34.
For KHMFERSFTQGEGARPLSTRVPRA [MATN2], in that order: 4.07 ± 0.18 and 3.85 ± 0.35.
For KIFNDFKDRMKSDHKRETERVVRE [ZMYND11], in that order: 4.12 ± 0.35 and 4.13 ± 0.081.
For KIINTKKLSARDHQKLEREARICR [CAMK2B], the protein stability index (treatment: DMSO) is 3.45 ± 0.29 and the protein stability index (treatment: MLN4924 1 uM, 8 h) was 3.88 ± 0.24.
For KILLDAQHESGQSSSRGSSHCDSP [BNIP3L], in that order: 4.91 ± 0.18 and 4.83 ± 0.1.
As for KKEDCLKLLLFLSTELQASQILQN [FAM98B], the protein stability index (treatment: DMSO) was 3.41 ± 1.1.
For KKQQELTAAVLGLICEGLYPASIV [ZBED1], the protein stability index is 2.97 ± 0.63 (treatment: DMSO) and 3.02 ± 0.58 (treatment: MLN4924 1 uM, 8 h).
For KLEPMETERSPGPRLQELLGPSPQ [ZNF263], in that order: 4.43 ± 0.14 and 4.52 ± 0.17.
On the same counts, the results for KLFESVECYDPRTQQWTAICPLKE [GAN] are 2.5 ± 0.38 and 2.82 ± 0.13.
Consider KLGNLMSLDISGHMILENCSISKM [ZER1], for which the protein stability index runs as follows: (treatment: DMSO) 2.1 ± 0.24; (treatment: MLN4924 1 uM, 8 h) 2.24 ± 0.24.
For KLLDHDNVKYLKKILDELEKVLDQ [GDAP1], in that order: 2.42 ± 0.56 and 2.32 ± 0.47.
On the same counts, the results for KLLVVDRTRRLGNMKNGANDVKHH [PRKX] are 3.23 ± 0.46 and 3.48 ± 0.15.
